From paper PMC9482650, “Quantitative fragmentomics allow affinity mapping of interactomes” (Nature Communications, 2022)

T1: FRMPD1, Q5SYB0
T1 sequence (Q5SYB0 52-145, limits assumed, looked up): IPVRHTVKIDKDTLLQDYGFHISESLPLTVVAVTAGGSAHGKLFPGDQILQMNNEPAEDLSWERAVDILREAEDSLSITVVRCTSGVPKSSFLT

T2: GRIP1_2, Q9Y3R0
T2 sequence (Q9Y3R0 145-248, limits assumed, looked up): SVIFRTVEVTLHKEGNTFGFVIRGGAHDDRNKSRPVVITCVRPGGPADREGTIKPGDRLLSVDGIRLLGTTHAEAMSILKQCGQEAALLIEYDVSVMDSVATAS

T3: GRIP1_3, Q9Y3R0
T3 sequence (Q9Y3R0 247-346, limits assumed, looked up): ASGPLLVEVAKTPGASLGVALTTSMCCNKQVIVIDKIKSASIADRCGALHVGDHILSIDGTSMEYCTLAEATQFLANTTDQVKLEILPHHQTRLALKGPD

T4: GRIP1_5, Q9Y3R0
T4 sequence (Q9Y3R0 568-668, limits assumed, looked up): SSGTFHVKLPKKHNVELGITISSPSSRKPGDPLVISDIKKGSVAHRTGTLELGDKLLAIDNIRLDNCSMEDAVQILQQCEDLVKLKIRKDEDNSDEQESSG

T5: LIN7A, O14910
T5 sequence (O14910 103-200, limits assumed, looked up): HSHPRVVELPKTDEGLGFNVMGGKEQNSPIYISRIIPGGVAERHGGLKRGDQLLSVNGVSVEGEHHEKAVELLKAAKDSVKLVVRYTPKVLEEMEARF

T6: PDZRN3_1, Q9UPQ7
T6 sequence (Q9UPQ7 244-349, limits assumed, looked up): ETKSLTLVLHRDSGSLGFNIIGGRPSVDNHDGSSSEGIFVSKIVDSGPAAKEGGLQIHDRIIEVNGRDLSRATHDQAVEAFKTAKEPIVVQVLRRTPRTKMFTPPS

T7: RADIL, Q96JH8
T7 sequence (Q96JH8 971-1071, limits assumed, looked up): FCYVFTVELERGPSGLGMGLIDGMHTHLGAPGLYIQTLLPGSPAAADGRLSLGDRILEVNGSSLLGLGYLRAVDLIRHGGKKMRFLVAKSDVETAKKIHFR

T8: RAPGEF6, Q8TEU7
T8 sequence (Q8TEU7 525-625, limits assumed, looked up): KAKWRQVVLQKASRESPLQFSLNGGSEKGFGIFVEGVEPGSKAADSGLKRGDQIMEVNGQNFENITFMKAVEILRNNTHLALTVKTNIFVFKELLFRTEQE

T9: RHPN1, Q8TCX5
T9 sequence (Q8TCX5 508-602, limits assumed, looked up): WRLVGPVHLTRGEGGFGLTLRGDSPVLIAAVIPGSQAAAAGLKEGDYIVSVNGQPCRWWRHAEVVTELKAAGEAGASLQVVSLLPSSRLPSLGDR

T10: TJP3_3, O95049
T10 sequence (O95049 375-456, limits assumed, looked up): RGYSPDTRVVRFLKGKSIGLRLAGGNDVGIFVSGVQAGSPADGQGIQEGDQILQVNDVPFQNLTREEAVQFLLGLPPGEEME


Assays:
Assay in all cases: holdup assay
Set-up in all cases: key: below the threshold = too weak to quantify, mostly under pKd 3.1 to 4
Details in all cases: plain residues with an end cap or a label only (N-terminal biotin on a linker: ado-ado)
[1] = target: DLG1_1, Q12959
[2] = target: DLG4_3, P78352
[3] = target: DLG5_1, Q8TDM6
[4] = target: T1, FRMPD1, Q5SYB0
[5] = target: GOPC, Q9HD26
[6] = target: GORASP1, Q9BQQ3
[7] = target: GORASP2, Q9H8Y8
[8] = target: T2, GRIP1_2, Q9Y3R0
[9] = target: T3, GRIP1_3, Q9Y3R0
[10] = target: T4, GRIP1_5, Q9Y3R0
[11] = target: HTRA1, Q92743
[12] = target: Inadl_10, Q8NI35
[13] = target: T5, LIN7A, O14910
[14] = target: LNX1_1, Q8TBB1
[15] = target: LNX1_3, Q8TBB1
[16] = target: MAGI1_1, Q96QZ7
[17] = target: MAST2, Q6P0Q8
[18] = target: NHERF4_2, Q86UT5
[19] = target: NHERF4_4, Q86UT5
[20] = target: PDLIM1, O00151
[21] = target: T6, PDZRN3_1, Q9UPQ7
[22] = target: PDZRN4_1, Q6ZMN7
[23] = target: T7, RADIL, Q96JH8
[24] = target: T8, RAPGEF6, Q8TEU7
[25] = target: T9, RHPN1, Q8TCX5
[26] = target: SCRIB_1, Q14160
[27] = target: TJP2_1, Q9UDY2
[28] = target: T10, TJP3_3, O95049

NHERF4_4, Q86UT5, sequence (Q86UT5 464-550): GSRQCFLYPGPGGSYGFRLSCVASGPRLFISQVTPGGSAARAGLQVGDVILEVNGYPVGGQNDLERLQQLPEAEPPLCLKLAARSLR
GORASP1, Q9BQQ3, sequence (Q9BQQ3 1-208): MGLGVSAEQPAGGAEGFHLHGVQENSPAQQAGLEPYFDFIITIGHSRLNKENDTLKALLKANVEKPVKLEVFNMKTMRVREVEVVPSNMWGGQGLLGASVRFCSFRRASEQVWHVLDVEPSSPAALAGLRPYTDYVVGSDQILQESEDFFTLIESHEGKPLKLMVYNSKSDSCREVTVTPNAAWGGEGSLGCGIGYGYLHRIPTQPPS
NHERF4_2, Q86UT5, sequence (Q86UT5 220-308): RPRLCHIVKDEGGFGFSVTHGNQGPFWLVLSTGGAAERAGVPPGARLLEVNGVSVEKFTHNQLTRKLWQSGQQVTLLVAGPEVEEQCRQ
DLG4_3, P78352, sequence (P78352 306-403): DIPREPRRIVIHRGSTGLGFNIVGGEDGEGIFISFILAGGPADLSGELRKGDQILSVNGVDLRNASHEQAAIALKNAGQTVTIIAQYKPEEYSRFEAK
TJP2_1, Q9UDY2, sequence (Q9UDY2 24-128): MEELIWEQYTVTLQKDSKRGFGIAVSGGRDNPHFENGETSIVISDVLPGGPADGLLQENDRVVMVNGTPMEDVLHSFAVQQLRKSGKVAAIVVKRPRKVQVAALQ
MAST2, Q6P0Q8, sequence (Q6P0Q8 1099-1202): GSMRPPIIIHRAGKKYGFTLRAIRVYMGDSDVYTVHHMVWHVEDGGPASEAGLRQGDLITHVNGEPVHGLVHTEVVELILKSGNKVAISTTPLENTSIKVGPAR
LNX1_3, Q8TBB1, sequence (Q8TBB1 500-596): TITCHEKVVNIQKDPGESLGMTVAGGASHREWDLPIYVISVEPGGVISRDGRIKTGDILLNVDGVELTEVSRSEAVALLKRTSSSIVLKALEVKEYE
PDZRN4_1, Q6ZMN7, sequence (Q6ZMN7 213-318): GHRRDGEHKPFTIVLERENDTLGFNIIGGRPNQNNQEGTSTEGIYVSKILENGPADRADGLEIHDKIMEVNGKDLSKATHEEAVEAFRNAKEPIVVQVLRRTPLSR
LNX1_1, Q8TBB1, sequence (Q8TBB1 261-371): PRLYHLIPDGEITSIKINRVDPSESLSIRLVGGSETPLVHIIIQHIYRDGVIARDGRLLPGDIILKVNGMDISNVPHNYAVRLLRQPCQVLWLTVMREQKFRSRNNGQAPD
MAGI1_1, Q96QZ7, sequence (Q96QZ7 1-106): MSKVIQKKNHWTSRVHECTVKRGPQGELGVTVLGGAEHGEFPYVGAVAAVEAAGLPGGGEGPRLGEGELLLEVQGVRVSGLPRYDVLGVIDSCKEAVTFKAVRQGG
PDLIM1, O00151, sequence (O00151 1-87): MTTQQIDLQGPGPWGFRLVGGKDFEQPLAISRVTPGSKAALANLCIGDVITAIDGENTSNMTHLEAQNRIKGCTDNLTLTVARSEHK
HTRA1, Q92743, sequence (Q92743 360-477): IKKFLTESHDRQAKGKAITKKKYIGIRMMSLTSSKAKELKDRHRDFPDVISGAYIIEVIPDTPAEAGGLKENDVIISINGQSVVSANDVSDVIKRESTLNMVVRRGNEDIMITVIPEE
Inadl_10, Q8NI35, sequence (Q8NI35 1673-1763): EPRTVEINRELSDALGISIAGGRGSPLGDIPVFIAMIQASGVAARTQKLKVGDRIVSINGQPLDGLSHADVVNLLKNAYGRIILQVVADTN
DLG5_1, Q8TDM6, sequence (Q8TDM6 617-713): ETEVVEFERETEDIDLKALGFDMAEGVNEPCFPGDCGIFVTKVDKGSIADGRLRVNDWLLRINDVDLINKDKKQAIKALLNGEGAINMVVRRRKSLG
SCRIB_1, Q14160, sequence (Q14160 718-814): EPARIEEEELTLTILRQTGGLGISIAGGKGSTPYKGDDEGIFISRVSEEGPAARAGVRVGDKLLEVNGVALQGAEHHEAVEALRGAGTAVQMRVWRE

| Binder | pKd [1] | pKd [2] | pKd [3] | pKd [4] | pKd [5] | pKd [6] | pKd [7] | pKd [8] | pKd [9] | pKd [10] | pKd [11] | pKd [12] | pKd [13] | pKd [14] | pKd [15] | pKd [16] | pKd [17] | pKd [18] | pKd [19] | pKd [20] | further results |
| --- | --- | --- | --- | --- | --- | --- | --- | --- | --- | --- | --- | --- | --- | --- | --- | --- | --- | --- | --- | --- | --- |
| NISARRFTLC [FAM167B, Q9BTA0] | 4.31 | 4.38 | below the threshold | below the threshold | below the threshold | 3.9 | 3.9 | below the threshold | below the threshold | below the threshold | 4.47 | below the threshold | below the threshold | 3.85 | below the threshold | 3.59 | 4.89 | below the threshold | below the threshold | below the threshold | pKd [21]: below the threshold; pKd [22]: below the threshold; pKd [23]: 4.62; pKd [24]: below the threshold; pKd [25]: below the threshold; pKd [26]: below the threshold; pKd [27]: 4.76; pKd [28]: below the threshold |
| STYCDYTIEI [FAM71C, Q8NEG0] | below the threshold | below the threshold | below the threshold | below the threshold | below the threshold | 4.72 | 4.41 | 3.53 | below the threshold | below the threshold | 5.38 | below the threshold | below the threshold | below the threshold | below the threshold | below the threshold | 5.12 | 3.51 | 4.68 | below the threshold | pKd [21]: below the threshold; pKd [22]: below the threshold; pKd [23]: 4.58; pKd [24]: below the threshold; pKd [25]: 3.47; pKd [26]: below the threshold; pKd [27]: below the threshold; pKd [28]: below the threshold |
| PLPPEEESWV [GAS2L2, Q8NHY3] | 4.25 | below the threshold | below the threshold | below the threshold | below the threshold | 4.22 | 4.48 | 3.8 | below the threshold | below the threshold | 5.14 | below the threshold | below the threshold | below the threshold | below the threshold | below the threshold | 5.12 | below the threshold | below the threshold | 4.22 | pKd [21]: 3.52; pKd [22]: 4.13; pKd [23]: 4.55; pKd [24]: 3.6; pKd [25]: 4.43; pKd [26]: 4.21; pKd [27]: 4.4; pKd [28]: 4.98 |
| RSPVATATSC [DUSP5, Q16690] | below the threshold | below the threshold | below the threshold | below the threshold | below the threshold | below the threshold | below the threshold | below the threshold | below the threshold | below the threshold | below the threshold | below the threshold | below the threshold | below the threshold | below the threshold | below the threshold | 4.22 | below the threshold | below the threshold | below the threshold | pKd [21]: below the threshold; pKd [22]: below the threshold; pKd [23]: below the threshold; pKd [24]: below the threshold; pKd [25]: below the threshold; pKd [26]: below the threshold; pKd [27]: below the threshold; pKd [28]: below the threshold |
